Data as given in patent publication US20200399394A1 (SURFACE ONCOLOGY, published 2020).

T1: human CD39 (ectonucleoside triphosphate diphosphohydrolase 1) (human, UniProt P49961 1-510)
T1 construct: Endogenous CD39 on MOLP-8 and SK-MEL-28 cells, primary human B cells and primary human monocytes; also called ENTPD1; ATPDase
T1 sequence: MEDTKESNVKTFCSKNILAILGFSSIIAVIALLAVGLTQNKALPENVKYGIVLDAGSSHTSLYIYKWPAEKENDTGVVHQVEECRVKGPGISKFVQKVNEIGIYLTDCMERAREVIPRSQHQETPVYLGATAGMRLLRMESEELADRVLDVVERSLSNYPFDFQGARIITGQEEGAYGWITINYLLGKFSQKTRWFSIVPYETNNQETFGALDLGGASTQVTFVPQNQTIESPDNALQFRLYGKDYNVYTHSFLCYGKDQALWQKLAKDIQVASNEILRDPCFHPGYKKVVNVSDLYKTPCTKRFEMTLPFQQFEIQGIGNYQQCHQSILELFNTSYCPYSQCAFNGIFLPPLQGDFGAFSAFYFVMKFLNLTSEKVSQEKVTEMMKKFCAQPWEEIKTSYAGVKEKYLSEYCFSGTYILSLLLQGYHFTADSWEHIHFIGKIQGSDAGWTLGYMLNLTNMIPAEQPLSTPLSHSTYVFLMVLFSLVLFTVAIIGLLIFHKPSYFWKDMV


Columns and labels:
[1] = biological target: T1, human CD39 (ectonucleoside triphosphate …); experiment: flow cytometry (MFI), AF488-labelled antibody, told under FIG. 4B (MOLP-8 cells; the sentence prints SK-MEL-28)
Procedure: (§1) The extent of binding to cells was determined and expressed as mean fluorescent intensity (MFI). Cells were washed with FACS Buffer (2 mM EDTA, 2% FBS) and pelleted by centrifugation. The cells were resuspended in FACS buffer containing a dose range of anti-CD39 or isotype control antibodies directly labelled with fluorophore Alexa Fluor 488 (AF488) and incubated for 30 minutes at room temperature. Cells were then washed twice with FACS buffer followed by fixation in 4% paraformaldehyde (PFA) and resuspended in FACS buffer and analyzed on a FACS Canto II analyzer (BD Biosciences).

[2] = biological target: T1, human CD39 (ectonucleoside triphosphate …); experiment: flow cytometry (MFI), AF488-labelled antibody on SK-MEL-28 cells, FIG. 4A
Procedure: as §1

Row | binding result [1] | binding result [2] | Binder
1 | binds |  | SRF370-A (antibody, human IgG4 S228P, kappa, V domains shown) VH: QVQLVQSGAEVKKPGSSVKVSCKASGGTFSTYAIGWVRQAPGQGLEWMGGIIPAFGTANYAQKFQGRVTITADESTSTAYMELSSLRSEDTAVYYCARDPVRRSPFDIWGQGTMVTVSS VL: EIVLTQSPATLSLSPGERATLSCRASQSVSSYLAWYQQKPGQAPRLLIYDSSNRATGIPARFSGSGSGTDFTLTISSLEPEDFAVYYCQQSFLWPRTFGGGTKVEIKR
2 |  | binds | SRF365-A (antibody, human IgG4 S228P, kappa, V domains shown) VH: QVQLVQSGAEVKKPGSSVKVSCKASGGTFSDKAISWVRQAPGQGLEWMGSILPIFGTANYAQKFQGRVTITADESTSTAYMELSSLRSEDTAVYYCAREAGYYRYRYFDLWGRGTLVTVSS VL: EIVMTQSPATLSVSPGERATLSCRASQSVSSNLAWYQQKPGQAPRLLIYGASTRATGIPARFSGSGSGTEFTLTISSLQSEDFAVYYCQQHALWPLTFGGGTKVEIKR
